Source: ChEMBL document CHEMBL6127040, “Discovery and optimization of isoliquiritigenin as a death-associated protein kinase 1 inhibitor” (Eur J Med Chem, 2024)

Columns and labels:
Settings in all cases: Homo sapiens; time 1.0 hrs
[1] = substrate: C=CCc1cc(/C=C/C(=O)c2ccc(O)cc2O)ccc1O
[2] = substrate: CCCc1cc(/C=C/C(=O)c2ccc(O)cc2O)ccc1O
[3] = substrate: COc1cc(/C=C/C(=O)c2ccc(O)cc2O)ccc1O
[4] = substrate: Cc1cc(O)ccc1/C=C/C(=O)c1ccc(O)cc1O
[5] = substrate: O=C(/C=C/c1ccc(O)c(O)c1)c1ccc(O)cc1O
[6] = substrate: O=C(/C=C/c1ccc(O)cc1)c1ccc(O)cc1O
[7] = substrate: C=CCc1cc(/C=C/C(=O)c2ccc(O)cc2O)ccc1O; remark: listed apart in the source
Description: (§1) Binding affinity to DAPK1 (unknown origin) assessed as catalytic rate incubated for 1 hr in presence of ATP by malachite green assay (Rvb = 3.0 +/- 0.15 /min)

[8] = substrate: CCCc1cc(/C=C/C(=O)c2ccc(O)cc2O)ccc1O; remark: listed apart in the source
Description: as §1

[9] = substrate: COc1cc(/C=C/C(=O)c2ccc(O)cc2O)ccc1O; remark: listed apart in the source
Description: as §1

[10] = substrate: Cc1cc(O)ccc1/C=C/C(=O)c1ccc(O)cc1O; remark: listed apart in the source
Description: as §1

[11] = substrate: O=C(/C=C/c1ccc(O)c(O)c1)c1ccc(O)cc1O; remark: listed apart in the source
Description: as §1

[12] = substrate: O=C(/C=C/c1ccc(O)cc1)c1ccc(O)cc1O; remark: listed apart in the source
Description: as §1

[13] = substrate: C=CCc1cc(/C=C/C(=O)c2ccc(O)cc2O)ccc1O; remark: listed apart in the source
[14] = substrate: CCCc1cc(/C=C/C(=O)c2ccc(O)cc2O)ccc1O; remark: listed apart in the source
[15] = substrate: COc1cc(/C=C/C(=O)c2ccc(O)cc2O)ccc1O; remark: listed apart in the source
[16] = substrate: Cc1cc(O)ccc1/C=C/C(=O)c1ccc(O)cc1O; remark: listed apart in the source
[17] = substrate: O=C(/C=C/c1ccc(O)c(O)c1)c1ccc(O)cc1O; remark: listed apart in the source
[18] = substrate: O=C(/C=C/c1ccc(O)cc1)c1ccc(O)cc1O; remark: listed apart in the source

B1: Death-associated protein kinase 1 (Homo sapiens), P53355 (protein)
chain: MTVFRQENVDDYYDTGEELGSGQFAVVKKCREKSTGLQYAAKFIKKRRTKSSRRGVSREDIEREVSILKEIQHPNVITLHEVYENKTDVILILELVAGGELFDFLAEKESLTEEEATEFLKQILNGVYYLHSLQIAHFDLKPENIMLLDRNVPKPRIKIIDFGLAHKIDFGNEFKNIFGTPEFVAPEIVNYEPLGLEADMWSIGVITYILLSGASPFLGDTKQETLANVSAVNYEFEDEYFSNTSALAKDFIRRLLVKDPKKRMTIQDSLQHPWIKPKDTQQALSRKASAVNMEKFKKFAARKKWKQSVRLISLCQRLSRSFLSRSNMSVARSDDTLDEEDSFVMKAIIHAINDDNVPGLQHLLGSLSNYDVNQPNKHGTPPLLIAAGCGNIQILQLLIKRGSRIDVQDKGGSNAVYWAARHGHVDTLKFLSENKCPLDVKDKSGEMALHVAARYGHADVAQLLCSFGSNPNIQDKEEETPLHCAAWHGYYSVAKALCEAGCNVNIKNREGETPLLTASARGYHDIVECLAEHGADLNACDKDGHIALHLAVRRCQMEVIKTLLSQGCFVDYQDRHGNTPLHVACKDGNMPIVVALCEANCNLDISNKYGRTPLHLAANNGILDVVRYLCLMGASVEALTTDGKTAEDLARSEQHEHVAGLLARLRKDTHRGLFIQQLRPTQNLQPRIKLKLFGHSGSGKTTLVESLKCGLLRSFFRRRRPRLSSTNSSRFPPSPLASKPTVSVSINNLYPGCENVSVRSRSMMFEPGLTKGMLEVFVAPTHHPHCSADDQSTKAIDIQNAYLNGVGDFSVWEFSGNPVYFCCYDYFAANDPTSIHVVVFSLEEPYEIQLNQVIFWLSFLKSLVPVEEPIAFGGKLKNPLQVVLVATHADIMNVPRPAGGEFGYDKDTSLLKEIRNRFGNDLHISNKLFVLDAGASGSKDMKVLRNHLQEIRSQIVSVCPPMTHLCEKIISTLPSWRKLNGPNQLMSLQQFVYDVQDQLNPLASEEDLRRIAQQLHSTGEINIMQSETVQDVLLLDPRWLCTNVLGKLLSVETPRALHHYRGRYTVEDIQRLVPDSDVEELLQILDAMDICARDLSSGTMVDVPALIKTDNLHRSWADEEDEVMVYGGVRIVPVEHLTPFPCGIFHKVQVNLCRWIHQQSTEGDADIRLWVNGCKLANRGAELLVLLVNHGQGIEVQVRGLETEKIKCCLLLDSVCSTIENVMATTLPGLLTVKHYLSPQQLREHHEPVMIYQPRDFFRAQTLKETSLTNTMGGYKESFSSIMCFGCHDVYSQASLGMDIHASDLNLLTRRKLSRLLDPPDPLGKDWCLLAMNLGLPDLVAKYNTSNGAPKDFLPSPLHALLREWTTYPESTVGTLMSKLRELGRRDAADFLLKASSVFKINLDGNGQEAYASSCNSGTSYNSISSVVSR
- Km [1]: 21 µM
- Km [2]: 28 µM
- Km [3]: 59 µM
- Km [4]: 48 µM
- Km [5]: 60 µM
- Km [6]: 43 µM
- kcat [7]: 0.025 s⁻¹
- kcat [8]: 0.035 s⁻¹
- kcat [9]: 0.0383 s⁻¹
- kcat [10]: 0.0383 s⁻¹
- kcat [11]: 0.0367 s⁻¹
- kcat [12]: 0.0483 s⁻¹
- kcat/Km [13]: 1130 M⁻¹ s⁻¹
- kcat/Km [14]: 583 M⁻¹ s⁻¹
- kcat/Km [15]: 417 M⁻¹ s⁻¹
- kcat/Km [16]: 650 M⁻¹ s⁻¹
- kcat/Km [17]: 417 M⁻¹ s⁻¹
- kcat/Km [18]: 600 M⁻¹ s⁻¹
